Target: T1, ParB (Myxococcus xanthus DK1050, UniProt Q1CVJ4 1-296)
T1 sequence: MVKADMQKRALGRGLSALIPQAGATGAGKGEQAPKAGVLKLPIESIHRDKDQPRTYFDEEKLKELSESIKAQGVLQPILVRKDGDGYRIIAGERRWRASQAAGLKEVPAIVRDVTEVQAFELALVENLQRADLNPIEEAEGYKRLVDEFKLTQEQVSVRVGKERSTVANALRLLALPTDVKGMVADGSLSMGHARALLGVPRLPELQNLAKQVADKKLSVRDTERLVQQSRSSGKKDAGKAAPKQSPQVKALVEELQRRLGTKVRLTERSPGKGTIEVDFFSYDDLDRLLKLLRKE
Test: EMSA (polyacrylamide); single retarded band up to highest ParB; 40 mM Na-phosphate pH 8, 20 mM NaCl, 7% glycerol, 20 ug/ml BSA, 100 ug/ml sheared salmon sperm DNA, 30 C (30 min agarose, 1 h polyacrylamide); gels run at 4 C
Conditions: protein: recombinant; tags: intein-chitin tag (pTYB12) removed by on-column DTT cleavage; chain copies: 2; label: 32P 5' end; blunt

B1: parS 50 bp consensus (dsDNA)
DNA 1: ACTCACTCATGGCCTCCGTGTTCCACGTGGAACGAAGGATGACTCGAGCA
DNA 2: TGCTCGAGTCATCCTTCGTTCCACGTGGAACACGGAGGCCATGAGTGAGT
- binding result: binds

Source: publication PMC3899335, “ParABS System in Chromosome Partitioning in the Bacterium Myxococcus xanthus”
